Test results: the supplement of paper PMC10724198
± gives the standard deviation of the averaged measurements.

system: Saccharomyces cerevisiae; test: protein stability index of tFT-peptide fusion (C-terminal peptide) (PSI (0-1 scale)); higher = more stable (slower turnover); conditions: genetic background: doa10 deletion; temperature: 30 C
Experimental: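 MPS profiling in S. cerevisiae of the tFT-X12 degron library: putative degron peptides plus stable controls, 12 aa, fused to the C-terminus of a sfGFP-mCherry timer. Cells are FACS-sorted into 8 mCherry/sfGFP bins and deep-sequenced. PSI runs from 0 (unstable) to 1 (stable). Backgrounds are wild type, das1Δ and doa10Δ at 30 °C, and wild type, das1Δ, cdc34-1 and cdc53-1 at 37 °C; 2-3 technical replicates each.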
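Note: PSI is a weighted mean of sequencing reads over stability bins, variants kept only with over 10 reads, mCherry proximal and sfGFP distal, peptide attached via GGGS linker.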

Sequence | protein stability index
HLYITGIIRKIT | 0.0875 ± 0.0033
HMVSWTVVRSLM | 0.138 ± 0.029
HYTSFAVPPLVY | 0.3404 ± 0.0026
IFFFQFLWFCLS | 0.243 ± 0.0098
IFRLVRVVRSSS | 0.19 ± 0.036
IIAVFRCCLRVY | 0.061 ± 0.02
IIFWMWVIIRVY | 0.114 ± 0.04
IIPAFPFAFLAF | 0.432 ± 0.0046
IISPLRLLPLFF | 0.271 ± 0.011
IKERRKVSMKVY | 0.321 ± 0.009
ILFCVRIGLFWT | 0.146 ± 0.019
INGINHKIIKIV | 0.0842 ± 0.014
INILVIWRKNHV | 0.0744 ± 0.0074
IPLGLTLVQCLY | 0.4357 ± 0.00058
IREYSIRIKRLQ | 0.138 ± 0.016
IRFFLIVFCFLR | 0.273 ± 0.0057
ISATYSYIPVVG | 0.32388 ± 3.1e-05

Sequence | protein stability index
ISVRKTFLIVLC | 0.152 ± 0.015
IVFLPVLLWFSV | 0.373 ± 0.019
IVTSFVSPVYIC | 0.0637 ± 0.023
IWVFSVTGWCGC | 0.3804 ± 0.0007
IYITFQIYVSDM | 0.0912 ± 0.04
IYLLLFFFSFSA | 0.3328 ± 6e-05
KKKQAILRTLKI | 0.177 ± 0.045
KKKTKYSKDKLC | 0.191 ± 0.028
KKTKKTMIIKTT | 0.33 ± 0.021
KLKLWSIIKNNA | 0.181 ± 0.008
KLMGWFVGVVAR | 0.323 ± 0.0045
KLVFLLCLNKVF | 0.173 ± 0.018
KRKKHKRKLVIC | 0.14 ± 0.027
KRSPPPATPSSG | 0.6035 ± 0.0057
KSARLYVTSFLC | 0.107 ± 0.012
KTRQLINKITQM | 0.137 ± 0.024

same assay, conditions: genetic background: wild type; temperature: 30 C

Sequence | protein stability index
HLYITGIIRKIT | 0.165 ± 0.024
HMVSWTVVRSLM | 0.144 ± 0.0044
HYTSFAVPPLVY | 0.376 ± 0.018
IFFFQFLWFCLS | 0.206 ± 0.028
IFRLVRVVRSSS | 0.236 ± 0.03
IIAVFRCCLRVY | 0.0911 ± 0.025
IIFWMWVIIRVY | 0.108 ± 0.039
IIPAFPFAFLAF | 0.407 ± 0.017
IISPLRLLPLFF | 0.298 ± 0.03
IKERRKVSMKVY | 0.373 ± 0.015
ILFCVRIGLFWT | 0.128 ± 0.03
INGINHKIIKIV | 0.0896 ± 0.017
INILVIWRKNHV | 0.0776 ± 0.024
IPLGLTLVQCLY | 0.477 ± 0.009
IREYSIRIKRLQ | 0.146 ± 0.04
IRFFLIVFCFLR | 0.203 ± 0.025
ISATYSYIPVVG | 0.378 ± 0.023

Sequence | protein stability index
ISVRKTFLIVLC | 0.156 ± 0.013
IVFLPVLLWFSV | 0.297 ± 0.035
IVTSFVSPVYIC | 0.0746 ± 0.014
IWVFSVTGWCGC | 0.417 ± 0.019
IYITFQIYVSDM | 0.127 ± 0.0083
IYLLLFFFSFSA | 0.348 ± 0.029
KKKQAILRTLKI | 0.197 ± 0.0073
KKKTKYSKDKLC | 0.217 ± 0.013
KKTKKTMIIKTT | 0.369 ± 0.04
KLKLWSIIKNNA | 0.25 ± 0.05
KLMGWFVGVVAR | 0.351 ± 0.039
KLVFLLCLNKVF | 0.199 ± 0.013
KRKKHKRKLVIC | 0.154 ± 0.045
KRSPPPATPSSG | 0.623 ± 0.0081
KSARLYVTSFLC | 0.123 ± 0.0064
KTRQLINKITQM | 0.153 ± 0.031

same assay, conditions: genetic background: wild type; temperature: 37 C

Sequence | protein stability index
HLYITGIIRKIT | 0.126 ± 0.029
HMVSWTVVRSLM | 0.2582 ± 0.00046
HYTSFAVPPLVY | 0.487 ± 0.011
IFFFQFLWFCLS | 0.339 ± 0.015
IFRLVRVVRSSS | 0.476 ± 0.011
IIAVFRCCLRVY | 0.152 ± 0.012
IIFWMWVIIRVY | 0.116 ± 0.092
IIPAFPFAFLAF | 0.541 ± 0.0073
IISPLRLLPLFF | 0.515 ± 0.0086
IKERRKVSMKVY | 0.557 ± 0.032
ILFCVRIGLFWT | 0.179 ± 0.014
INGINHKIIKIV | 0.0909 ± 0.0048
INILVIWRKNHV | 0.114 ± 0.021
IPLGLTLVQCLY | 0.576 ± 0.0069
IREYSIRIKRLQ | 0.318 ± 0.058
IRFFLIVFCFLR | 0.226 ± 0.022
ISATYSYIPVVG | 0.507 ± 0.0073

Sequence | protein stability index
ISVRKTFLIVLC | 0.279 ± 0.025
IVFLPVLLWFSV | 0.442 ± 0.0084
IVTSFVSPVYIC | 0.0794 ± 0.021
IWVFSVTGWCGC | 0.532 ± 0.016
IYITFQIYVSDM | 0.244 ± 0.032
IYLLLFFFSFSA | 0.457 ± 0.024
KKKQAILRTLKI | 0.417 ± 0.013
KKKTKYSKDKLC | 0.456 ± 0.04
KKTKKTMIIKTT | 0.6051 ± 0.0008
KLKLWSIIKNNA | 0.484 ± 0.053
KLMGWFVGVVAR | 0.517 ± 0.033
KLVFLLCLNKVF | 0.29 ± 0.0089
KRKKHKRKLVIC | 0.148 ± 0.05
KRSPPPATPSSG | 0.704 ± 0.012
KSARLYVTSFLC | 0.179 ± 0.02
KTRQLINKITQM | 0.288 ± 0.031

system: Saccharomyces cerevisiae; test: as above; conditions: genetic background: wild type; temperature: 30 C

Sequence | protein stability index
HLYITGIIRKIT | 0.179 ± 0.036
HMVSWTVVRSLM | 0.316 ± 0.011
HYTSFAVPPLVY | 0.481 ± 0.024
IFFFQFLWFCLS | 0.315 ± 0.038
IFRLVRVVRSSS | 0.386 ± 0.031
IIAVFRCCLRVY | 0.168 ± 0.076
IIFWMWVIIRVY | 0.139 ± 0.044
IIPAFPFAFLAF | 0.489 ± 0.0067
IISPLRLLPLFF | 0.388 ± 0.017
IKERRKVSMKVY | 0.474 ± 0.022
ILFCVRIGLFWT | 0.219 ± 0.051
INGINHKIIKIV | 0.155 ± 0.025
INILVIWRKNHV | 0.129 ± 0.048
IPLGLTLVQCLY | 0.53 ± 0.053
IREYSIRIKRLQ | 0.33 ± 0.036
IRFFLIVFCFLR | 0.284 ± 0.021
ISATYSYIPVVG | 0.455 ± 0.038

Sequence | protein stability index
ISVRKTFLIVLC | 0.232 ± 0.022
IVFLPVLLWFSV | 0.407 ± 0.015
IVTSFVSPVYIC | 0.12 ± 0.029
IWVFSVTGWCGC | 0.452 ± 0.024
IYITFQIYVSDM | 0.229 ± 0.018
IYLLLFFFSFSA | 0.3914 ± 0.0012
KKKQAILRTLKI | 0.406 ± 0.0082
KKKTKYSKDKLC | 0.343 ± 0.035
KKTKKTMIIKTT | 0.463 ± 0.0091
KLKLWSIIKNNA | 0.385 ± 0.03
KLMGWFVGVVAR | 0.442 ± 0.015
KLVFLLCLNKVF | 0.243 ± 0.037
KRKKHKRKLVIC | 0.265 ± 0.043
KRSPPPATPSSG | 0.24 ± 0.034
KSARLYVTSFLC | 0.194 ± 0.0022
KTRQLINKITQM | 0.254 ± 0.072
